# Changes are numbered by the printed parent chain. Numbers in names are those of the source.
# B1: purified recombinant CSPα^WT (E. coli, GST removed by TEV protease), Q9H3Z4 1-198 (protein)
# chain: MADQRQRSLSTSGESLYHVLGLDKNATSDDIKKSYRKLALKYHPDKNPDNPEAADKFKEINNAHAILTDATKRNIYDKYGSLGLYVAEQFGEENVNTYFVLSSWWAKALFVFCGLLTCCYCCCCLCCCFNCCCGKCKPKAPEGEETEFYVSPEDLEAQLQSDEREATDTPIVIQPASATETTQLTADSHPSYHTDGFN
# modifications: here or on the partner: Fe-S clusters bound at the Cys-string of the E. coli protein. No palmitoylation in bacteria.; Fe-S clusters bound at the Cys-string of the E. coli protein. No palmitoylation in bacteria.
# B2: purified recombinant CSPα^L115R (E. coli, GST removed by TEV protease), Q9H3Z4 1-198 (protein)
# chain: B1 chain with L115R
# modifications: here or on the partner: Fe-S clusters bound at the Cys-string of the E. coli protein.; Fe-S clusters bound at the Cys-string of the E. coli protein.
# What was measured:
# [1] = target: T1, purified recombinant CSPα^WT (E. coli, GST removed by TEV protease) (Homo sapiens (Human)), Q9H3Z4; assay: self-oligomerization of purified recombinant protein, SDS-PAGE and quantitative anti-CSPα immunoblot; conditions: remark: other sources report otherwise
# T1 chain: B1 chain
# [2] = target: T2, purified recombinant CSPα^L115R (E. coli, GST removed by TEV protease) (Homo sapiens (Human)), Q9H3Z4; assay: as above; conditions: remark: other sources report otherwise
# T2 chain: B1 chain with L115R
Binder,percent of protein existing as oligomers [1] [%],percent of protein existing as oligomers [2] [%]
B1,75,–
B2,–,75

# Reference: patent US20210290602A1
